According to patent US20170037083A1 (AVIXGEN, published 2017):
Where no end group is shown, it is not given here.

What was measured:
VEGFR-1 = target: T1, VEGFR-1 (human, UniProt P17948 27-1338); test: streptavidin-agarose pull-down from HUVEC lysate with biotin-labeled RLYE, immunoblot for VEGFR-1
T1 construct: whole, on cells; In detergent lysate of HUVECs in the pull-down assay; on IM-9 and RPMI 8226 cells and HUVECs in the functional assays; also called VEGF receptor-1
Experimental: HUVECs were lysed in a pull-down buffer [50 mM Tris-HCl (pH 8.0), 150 mM sodium chloride, 1.0% NP-40, 0.5% sodium deoxycholate and 0.1% SDS]. A lysate ([…] of proteins) was reacted with biotin-labeled RLYE (0.15 or 1.5 nM) for 1 hour, and reacted with streptavidin-agarose beads ([…]) at 4° C. for 1 hour. RLYE-binding proteins were isolated from the cell lysate through centrifugation, washed, and then boiled for 10 minutes. The bead-binding proteins were isolated by SDS-PAGE, and immunoblotting was performed with an antibody with respect to VEGFR-2 or VEGFR-1.
(§1) Subsequently, it was investigated whether RLYE (SEQ ID NO: 2) interacts with VEGFR-2 expressed in HUVECs. HUVECs were cultured with FITC-RLYE before or after VEGF-A treatment, and FACS was performed to examine an amount of RLYE (SEQ ID NO: 2) binding to the HUVECs. […] To examine binding between RLYE (SEQ ID NO: 2) and VEGF receptors, a pull-down assay was performed. […] Therefore, the binding between RLYE (SEQ ID NO: 2) and VEGFR-2 was identified as a strong bond having a small dissociation coefficient (194 nM), and it was also seen that RLYE (SEQ ID NO: 2) binds to VEGFR-2 at the same positions to which VEGF-A/C binds (immunoglobulin homology domains D2 and D3) (see FIG. 10A).

[1] = target: T2, VEGFR-2 expressed in HUVECs (human, UniProt P35968 20-1356); test: flow cytometry (FACS) on HUVECs, FITC-RLYE 15 nM, VEGF-A 100 ng/ml added before or after
T2 construct: whole, on cells; On the surface of HUVECs in FACS, confocal microscopy and the cell assays; in detergent lysate of HUVECs in the pull-down assay; also called VEGF receptor-2
Experimental: HUVECs were cultured in a 60-mm culture plate for 24 hours. The cells were isolated from the plate with 5 mM EDTA-containing phosphate-buffered saline (PBS), washed with PBS three times, and suspended in 2% FBS/0.1% bovine serum albumin-containing PBS. Afterward, before or after the reaction with FITC-conjugated RLYE (15 nM), the cells were treated with VEGF (100 ng/ml), stored on ice for 30 minutes, fixed in 2% paraformaldehyde, and assessed with a fluorescence activated cell sorter (FACS Calibur, Becton Dickinson) by flow cytometry.
as §1

rhVEGFR-2 = target: T3, rhVEGFR-2 (human, UniProt P35968 20-764, limits assumed); test: SPR (BIAcore), rhVEGFR-2 immobilised on the chip, RLYE injected
T3 construct: Immobilised on the carboxymethylated dextran chip for SPR; also called recombinant human VEGFR-2; VEGF receptor-2
Experimental: Binding dynamics and affinity of RLYE to rhVEGFR-2 were evaluated with BIAcore AB (Sweden). A carboxymethylated dextran biosensor chip (CMS, BIAcore AB) was activated with 1-ethyl-3-(3-dimethylaminopropyl)carbodiimide and N-hydroxysuccinimide according to the manufacturer's manual. The rhVEGFR-2 (1 ng/μl, 10 mM Hepes, 150 mM NaCl, 3 mM EDTA, 0.005% Tween-20-containing HBS-EP buffer) was injected over the activated CMS chip for fixation. Various concentrations of an RLYE solution was injected over the rhVEGFR-2-fixed center chip with a flow rate of 25 μl/min, and binding and non-binding characteristics between RLYE and the rhVEGFR-2 were analyzed. The peptide bonds were measured in arbitrary response units, and after the injection of each sample (120 sec), the HBS-EP buffer was passed over a sensor surface to monitor dissociation. The equilibrium dissociation constant (Kd) was derived to a fixing step-combined model.
Meanwhile, the interaction between RLYE (SEQ ID NO: 2) and rhVEGFR-2 was examined by SPR analysis.

[2] = target: T2, VEGFR-2 expressed in HUVECs; test: cell-based or functional assay

T2 sequence (P35968 20-1356): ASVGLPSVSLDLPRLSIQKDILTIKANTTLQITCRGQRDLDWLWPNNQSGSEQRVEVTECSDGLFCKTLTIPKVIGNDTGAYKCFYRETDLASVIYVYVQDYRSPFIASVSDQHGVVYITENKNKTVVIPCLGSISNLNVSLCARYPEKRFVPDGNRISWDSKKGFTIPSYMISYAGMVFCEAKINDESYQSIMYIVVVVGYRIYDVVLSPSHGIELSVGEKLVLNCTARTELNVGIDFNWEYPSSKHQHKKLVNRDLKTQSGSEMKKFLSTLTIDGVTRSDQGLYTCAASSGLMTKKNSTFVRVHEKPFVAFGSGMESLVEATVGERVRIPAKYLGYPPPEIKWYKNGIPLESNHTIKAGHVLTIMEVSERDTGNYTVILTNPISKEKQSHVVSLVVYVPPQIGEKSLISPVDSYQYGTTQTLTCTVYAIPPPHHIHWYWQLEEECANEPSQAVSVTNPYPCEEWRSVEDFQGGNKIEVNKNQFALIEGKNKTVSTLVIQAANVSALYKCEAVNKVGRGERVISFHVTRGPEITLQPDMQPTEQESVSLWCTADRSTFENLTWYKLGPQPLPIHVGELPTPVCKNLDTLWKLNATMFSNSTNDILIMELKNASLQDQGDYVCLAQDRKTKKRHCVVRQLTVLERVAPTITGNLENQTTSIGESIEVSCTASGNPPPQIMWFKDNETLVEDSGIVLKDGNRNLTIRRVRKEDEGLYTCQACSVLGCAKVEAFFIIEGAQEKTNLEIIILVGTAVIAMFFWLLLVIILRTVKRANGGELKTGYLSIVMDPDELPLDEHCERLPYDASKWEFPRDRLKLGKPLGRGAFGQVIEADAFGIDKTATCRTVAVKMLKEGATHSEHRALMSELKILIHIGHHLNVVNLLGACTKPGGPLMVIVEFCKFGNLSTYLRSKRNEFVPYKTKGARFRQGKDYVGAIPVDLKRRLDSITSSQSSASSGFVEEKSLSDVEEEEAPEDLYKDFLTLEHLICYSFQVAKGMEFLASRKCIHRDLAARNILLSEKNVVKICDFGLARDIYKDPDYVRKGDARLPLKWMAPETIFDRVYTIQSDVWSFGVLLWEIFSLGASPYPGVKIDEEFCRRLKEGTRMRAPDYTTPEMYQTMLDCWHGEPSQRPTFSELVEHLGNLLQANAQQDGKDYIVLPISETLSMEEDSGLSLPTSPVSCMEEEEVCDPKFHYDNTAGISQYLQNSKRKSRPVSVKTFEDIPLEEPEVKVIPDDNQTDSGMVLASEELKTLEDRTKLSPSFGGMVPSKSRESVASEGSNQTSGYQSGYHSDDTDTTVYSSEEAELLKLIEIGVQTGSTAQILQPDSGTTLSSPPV
T3 sequence (P35968 20-764 limits assumed): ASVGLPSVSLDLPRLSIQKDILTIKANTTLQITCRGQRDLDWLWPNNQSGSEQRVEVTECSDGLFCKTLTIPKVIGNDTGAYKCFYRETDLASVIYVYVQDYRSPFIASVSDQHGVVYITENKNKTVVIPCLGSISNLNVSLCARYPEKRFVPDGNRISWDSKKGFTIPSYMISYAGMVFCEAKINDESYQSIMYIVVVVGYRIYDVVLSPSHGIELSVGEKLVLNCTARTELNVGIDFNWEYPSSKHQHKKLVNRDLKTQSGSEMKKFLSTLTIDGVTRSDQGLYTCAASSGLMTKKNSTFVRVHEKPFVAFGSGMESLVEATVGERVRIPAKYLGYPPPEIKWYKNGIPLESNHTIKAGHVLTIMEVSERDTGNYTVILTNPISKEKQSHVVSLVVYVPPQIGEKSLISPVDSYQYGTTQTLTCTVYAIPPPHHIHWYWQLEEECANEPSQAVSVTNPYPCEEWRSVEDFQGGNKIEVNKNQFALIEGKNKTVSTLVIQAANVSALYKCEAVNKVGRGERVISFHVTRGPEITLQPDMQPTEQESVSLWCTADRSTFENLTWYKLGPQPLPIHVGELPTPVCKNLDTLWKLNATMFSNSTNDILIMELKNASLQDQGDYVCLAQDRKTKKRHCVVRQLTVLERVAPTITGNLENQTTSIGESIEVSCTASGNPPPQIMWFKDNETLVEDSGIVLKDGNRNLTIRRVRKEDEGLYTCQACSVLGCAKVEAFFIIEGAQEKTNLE
T1 sequence (P17948 27-1338): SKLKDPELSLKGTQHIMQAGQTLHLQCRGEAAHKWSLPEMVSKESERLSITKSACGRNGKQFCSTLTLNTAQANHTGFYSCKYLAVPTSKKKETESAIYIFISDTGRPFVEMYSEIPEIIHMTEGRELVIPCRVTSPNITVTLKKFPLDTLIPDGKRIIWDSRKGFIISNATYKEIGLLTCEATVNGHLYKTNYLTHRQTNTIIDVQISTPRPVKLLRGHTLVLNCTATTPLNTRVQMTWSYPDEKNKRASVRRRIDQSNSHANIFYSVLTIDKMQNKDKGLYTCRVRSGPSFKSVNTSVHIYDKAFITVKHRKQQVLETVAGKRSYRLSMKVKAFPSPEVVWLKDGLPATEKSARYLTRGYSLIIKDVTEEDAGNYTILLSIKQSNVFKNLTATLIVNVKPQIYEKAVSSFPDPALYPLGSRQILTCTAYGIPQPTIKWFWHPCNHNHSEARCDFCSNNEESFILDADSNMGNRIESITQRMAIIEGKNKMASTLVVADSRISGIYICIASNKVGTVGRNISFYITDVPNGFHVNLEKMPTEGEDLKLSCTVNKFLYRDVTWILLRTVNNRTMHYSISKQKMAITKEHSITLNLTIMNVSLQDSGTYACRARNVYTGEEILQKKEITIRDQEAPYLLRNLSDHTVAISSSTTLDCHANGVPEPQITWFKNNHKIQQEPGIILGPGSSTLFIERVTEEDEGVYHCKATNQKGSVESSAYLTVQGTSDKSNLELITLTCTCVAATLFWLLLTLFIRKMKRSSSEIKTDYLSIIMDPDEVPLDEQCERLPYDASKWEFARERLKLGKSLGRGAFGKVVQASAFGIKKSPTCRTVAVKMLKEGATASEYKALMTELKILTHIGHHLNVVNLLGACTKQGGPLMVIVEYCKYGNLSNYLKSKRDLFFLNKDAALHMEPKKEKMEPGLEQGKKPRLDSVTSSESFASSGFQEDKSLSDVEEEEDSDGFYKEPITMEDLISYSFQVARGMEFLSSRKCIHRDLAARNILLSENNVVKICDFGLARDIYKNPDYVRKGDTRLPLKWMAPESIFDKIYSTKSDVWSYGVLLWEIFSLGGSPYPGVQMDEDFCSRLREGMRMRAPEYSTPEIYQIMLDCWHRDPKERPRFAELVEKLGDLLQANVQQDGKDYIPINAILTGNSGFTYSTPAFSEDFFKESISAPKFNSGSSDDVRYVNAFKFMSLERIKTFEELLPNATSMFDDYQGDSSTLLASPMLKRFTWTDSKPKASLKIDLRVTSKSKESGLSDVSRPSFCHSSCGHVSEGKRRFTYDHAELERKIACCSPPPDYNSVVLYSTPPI

B1: biotin-labeled RLYE (peptide)
peptide: RLYE
modifications: also: biotin-labeled, site not given here
notes: Used at 0.15 or 1.5 nM in the pull-down from HUVEC lysate with streptavidin-agarose beads; also called biotinylated RLYE peptide
B1: no binding (VEGFR-1).

B2: FITC-conjugated RLYE (peptide)
peptide: RLYE
modifications: also: FITC-conjugated, site not given here
notes: Used at 15 nM in FACS and at 100 ng/ml in confocal microscopy on HUVECs; also called FITC-RLYE
B2: binds [1].

B3: RLYE peptide (SEQ ID NO: 2) (peptide)
peptide: RLYE
notes: Unlabelled synthetic tetrapeptide, analyte in the SPR assay and used in the cell assays
B3 was tested, and the Kd (rhVEGFR-2) was 9000 nM, the “IC50 of VEGF-induced HUVEC migration (transwell)” value [2] was 0.06 nM and the “IC50 of VEGF-induced HUVEC proliferation ([3H]-thymidine incorporation)” value [2] was 0.08 nM.
